# Assay: label from the status in PepcDB records
row,Sequence,protein production
1,SIRTKQSEAKSKGDTLRQLELAALMTHCNMLITHQQLALQAAMKLAYATKNYLYALAFAKRLLELAPNEEMERTAKKVMQFCERNPNNQNQLDYDIEQSNFAIDAGRLKPCIQPPTKSCVYCGACYDESWHSMTCVVCQVAQD,not failed
2,MKVAVLDFGKTNSKLFVFGQDGGILDERRTQPKWTHQDGFSVLDEAALHDWALGAVTEAVENHGVEGVMVSGHGCTFALVDDAALTHPILDYEQEPPAEIAARIDHRIPDFAETFSPRLPLGFNYGRHMLWVQEVDPDAFAAAKSILGYPQYWSWRLGGRPVSEVSYLGCHSHLWAPRSQDFSSLVDAEGWRGQMPAFARAGAVIGERRLGSSSRPIAIHNGVHDSNAALHAYRRQELGPLTVVSTGTWVVVLNPGCPLDVLDRDRDMLVNVDVDGGPVPTIRFMGGREFAAISAGWQGAIPPGAVQQAIDAGIMALPSFAPGGPMPDRPGRLVGRTPYAAERAAAALLYVALMVDLCLDLIQSQDTVIVDGGLNAGGLLAGLLAELRPGQAFLQGATLEGSATGAAALAFESVGRDFVAEAPEPVHAARFAGLAGYRDAWRDRVGGQGTAIKAAGGARLEHHHHHH,failed
3,MNVSNGDLIVEKIVANRKYHALKRQRNVLSWLLTLLMLVVYFGFIGLIAFNKAFLAVPLASGVTTRGIPIAIGVMLFAIIVTAVYVFFSNIVYDKLSRNILEDACK,failed
4,MSGSLLLLFVFLSAFLAPPLSRLLRMPVPVGELVIGLLLGHFLAQGVALPEILGFLADFGFLLLMFLAGLEVDFNLLRQLERRHFVFYALYVVGMFLGAGLLAGLLGVGLAQALILALVSIGLMVATLRDMGILGRAFAKRVLILGVLGEVASLFGLTAMEKAAHYQGLLSLLKEVGIIALFFLLLFLAFRLAGLFLWWYPEVGRRLVYEEDPSAMGIRLSLALMFAAAVMSGLVGLESVLGAFLAGMILSYFLQKKHDLEAKLSAMGYGFLIPIFFIRTGMGIDLSGLDGRLLLEVGQALLLMLLIRLLPAPFLLLGGFRLREAFLAALLLAYPFTLMIAGTEIARSAHLLDERAALVLLLAAALSSLLFPWTAKMLLRFLR,failed
5,MPAHSLSLYQYYRPPLDWQAQLAFYRLRAVAGMEWFSNTDNDCLEKIAQDKQALEYGRTLQIDDIRAVVHIIHEAHLHRFKLTLTFTPDSPIAGLQKLITQVRRILDLDADMQQIEHNLQRLTDLKLIPKSGLRIPGAGSLEHHHHHH,failed
6,REIADNTYIVLGTMTLNDFNEYFETDLESDNVDTIAGFYLTGVGTIPSQEEKEHFEVESNGKHLELINDKVKDGRVTKLKILVSE,not failed
7,MGTQRSDTRDQSARLMRRATYASVTVAMTLVVAKLVAWVLTDSVALLSTLIDSLIDVGASLVTLLAVREALTPADEEHRFGHGKAEPLAGLGQAAFIAGSGIFLVIEAAGRLTAPLPVQRGEIGIAVMVFSILATIGLVAYQRRVIAQTKSVAISADSLHYAGDLLINLSVIVSLGLAMTVDLPILDPLFAIAIALWLMKNAWTIGANSVNLLMDRELPPEDRVRIIKLALENPRVFDIHDLRTRSSGPQTFIQLNVELDGEMTLSASHAIVTEIENRLRAAFPGAEVLIHQDPAGIQEDHHPDFAYEDTSALLEADAASQPRRL,failed
8,VKTWPAPTAPTPVRATVTVPGSKSQTNRALVLAALAAAQGRGASTISGALRSRDTELMLDALQTLGLRVDGVGSELTVSGRIEPGPGARVDCGLAGTVLRFVPPLAALGSVPVTFDGDQQARGRPIAPLLDALRELGVAVDGTGLPFRVRGNGSLAGGTVAIDASASSQFVSGLLLSAASFTDGLTVQHTGSSLPSAPHIAMTAAMLRQAGVDIDDSTPNRWQVRPGPVAARRWDIEPDLTNAVAFLSAAVVSGGTVRITGWPRVSVQPADHILAILRQLNAVVIHADSSLEVRGPTGYDGFDVDLRAVGELTPSVAALAALASPGSVSRLSGIAHLRGHETDRLAALSTEINRLGGTCRETPDGLVITATPLRPGIWRAYADHRMAMAGAIIGLRVAGVEVDDIAATTKTLPEFPRLWAEMVGPGQGWGYPQPRSGQRARRATGQGSGG,not failed
9,MKKVKIFSIVLPLIYTSFMLYVTYKVYNGLRYRSLDLGIFTQSLYSLSEGKLFYNTVEFQLYEVHTHFGVHFQPILFLLTPLFLIKRDAYTLIIIQTLALGTSVYLAYKLAVKELGEKKGFALAILYSCNSSLISINVFEFHPVSLAVPLFLLAYKFLREESPLFYVISTLILLTKEDAFLGVLSITAWKILKEGLSVETLKKNKKIILFTILTLLYGIFTIKVVIPKFGGEYIYSNLYMEPRLDRRKLTYFLLFNLTFALLPLLNFFAILSLLPPWLECLLASRESQTMFGFHYPYMLVPLSFVISLDVAKKLDWKILRNLAILGVISSLITLPITNHLPKEQNPLVYPTVITPIPGKEASWEAIKITRELEGPIYTQPEFYPALATRLDVYVYPKNVKPKIILVNLNTYYGRRALERIKAFRVNLSEYKKVFEKDGVLIMVRKD,failed
10,MAKELYVGHMSYEATEDDLRRLFSVAGTVTSVHIITDPETGRSKGCGYVRMLTEEEAKEAIETLDGALLRNRVITVSVARPQKQATRPAPRRGKPGPGGRPGKKRPS,failed
11,MDTRKLLLTAQEISRMKGEHKVHFLNPGAVRVNKSLGDAVGLRHMGIHLIQIEPGKESTEYHLHHYEEEAVYVLSGKGTLTMENDQYPIAPGDFVGFPCHAAAHSISNDGTETLVCLVIGQRLDQDVVDYPNQHKRLYRNNGEWNLVDMADIRVLREPTQK,not failed
12,MPHPFVYHDCPMSRLLFRYICTETAVPFALGLTVFTFVLLMGRLLKLAEMVFARGVPFLDVTRLILYMLPSFFLVAIPMAFLLAVLLAMGRLSADSEVTAMKASGMSIGTIAVPVIAFGVITYAATTFVSVYALPWGNTAFKKFLHGVIETRAAMSITEKVFNDEFPGLVIYVDGFDPKSGRISGILIHDERNPDEPSTIFAASGQLATNPEERIVRLRLNNGGIHRGIGTGGYRLVEFTSYDLSIALQREQQKARLNEEDMTLGELLARMKSPGEQPKLVREMHFELHKRFALPFACVVFAVIAVPLGIQNQRSGRAGGFAAGIILLMLYYILMSAGKTVNEKGIAPAFVAVWIPNVLFLGLGIFLLKRAALDRAIPLAEYVTTALAWVRHRFERRKT,failed
13,MLTTLAIGNYRSINHLVLPLSQLNLVTGANGSGKSNLYKALRLLAETAQGGVVEALAREGGLDSTWWAGPETSARMRRGEVPIQGQHPSEVRRLRLGFATEDLGFAITLGLPIPLPYPSAFMLDPEIKCEAIWGAGAYRPSSLLVERKNALVRAREGNRWAVLDQHADSGESFFNIVGRPRQAPEIGDLRAFINSWRFYDHFRIDRDAPCRQPQLGTRSPVLHHDGRNLASALQTIIEIGDVEDLEEALNDAFPGSRLEINAPPGGLFSVRLHQHGLLRPLEGAELSDGTLRYLLLMAALLTPRPPSLMVLNEPETSLHADLLPALARLIIRASRRSQVWVVSHSAPLINALAACDGCNVLELEKIQGQTQLRGVGLLDEPLWRWAD,failed
14,MLRFMVRSFASLAISSAYSIPIGLSSVTSILDEDTIIERVCYGYLKCNATCSTEIVIVNYSITLNMSDDVVVKLLNDGYFSLDAGAYFGVVPKAIWSRKFQEIDNTVRLATNVLYITESDGTSILVDSGIGNKFDDKFRKIYRVEKQSDIYEYIRLHGDPNSVRMIINSHLHFDHVGHNADFKNAYAYAQADEFKAARYRNYITKANYRLSASQIKNKVEIGGSKRINGFIRVIKTDGHTPGHQVILINAGGRKIMYFGDIVPSTFHLKLPYRTAIDLDPLKTIEFKKNLVKMAIRENYICIFNHDVETPAAILSGDYSDPKYVKVDI,failed
15,MPSTLQGTFHTYRIIRRLGQGAFGEVSLAGVLETGEVVALKRIHIRNTGGIPDVVVREIKALQSVSHPNVVALLDVFPKGQAIYLVQEYCTTDLAALLRRLPAPPPERIAKGLMLQLCRGLEALHAEGIMHRDVKPSNTLLSAASGTAKLADCGLARPLDGGERPAYTHAVATRWYRAPELLYGARAYGPAVDVWALGLVFAELLGLSPLVPGDNDIDQLGRVIATFGSMEPVWLGVRALPDWGKIAFPHCEPLPLGDLLPGAPAAALEFLAAFLRYDPAKRITAACAVRSTYLTATQPL,failed
16,MSSEVQKGPRALTVGRGDGRIWGMSSAERLARIYRRLDLVETPAVDLSHPVVAVDAGWVFDESLIKALAGREGAVLVDDAGRAVAVHAPADLAYAASEALAAGNDPAGLDPRFTRLTALELGSAYNSALRKREPPVLERLTPETVRAVEKRLFQGSYKGVTDFVTKYVWPAPARVVTRWCALAKMTPNQVTFIGFVMVLAATWLFWHGHFGWGLVCAWIMTFLDTVDGKLARVTLTSSKWGNVFDHGIDLVHPPFWWWAWFVGVYAVGQEIPYAALSLAIVVGGYVAQRVEEGIFLALFKLEMHAWRPFDSFFRLITARRNPNLILLTGCAMVGRPDLGFTLVAIWTAVCFVVHAIQILQGLMAPKGSIQSWLAK,failed
17,MASLAFIQAFLESFKGFLSQATLISVLIASVLILFCAILLLLALLLRNRLASYIATAAFLGAFLSMPFVLNILLTQAIYPIETRILHANPLSYSNAFSLQVGVKNHSKFTLNKCVLRLEVLKNPHNFVEEHAFKWFVKKSYEKIFKEKILPKESKVFSFFIDNYPYSKTAPYQVSLFCL,failed
18,MFNAGNRIINTWLYPIQDGFVLIDTGYENGFKHFKKRISKFNIKIKDIRYIFLTHAHDDHVGFLNQILDESPNTKIVMHDKALEILYKGQNSFIGGCTSRTAFLFCQIMKLFGKGEHSFSPLKQEFEKRCILVSDKNRKEIEKELNGKIIDTPGHTDDSISLLIDDGVLFCGDSAMNGFPSTHKITIFAESKLEFIQSWKTIINTKPKMIYPGHGKPFEYSKLEQNLIYVNKINLYPLHNSKDIHRFL,failed
19,MELRTPGTKWSPQGIGSLRRVVWDYSTPEISLFSEEGLKGEQVKLTEALKNSQGLEKPLQVASATVSAGLWLLYPKPLFEDTPYILEPGEYPTSEAWGTSDPSVGSLKPMRLGCPSVEKPGEPRAVVYEAPGFQGRSWEVSRDIYNLQQPEDSQSPHLASVGSLRVLGGCWVGYEKEGFRGHQYLLEEGEYPDWSHWGGYDELLTSLRVIRTDFGDPAVVLFEAMDFEGHGVEVSKALPDVELVQHGPSTQAIHVLSGVWVAYQEVGFSGEQYVLEKGVYRNCEDWGAGNSTLASLQPVLQVGEHDLHFVSKIQLFSRPDFLGDHFSFEDDQAALPASFRPQSCRVHGGSWILFDETNFEGDQHILSEGEFPTLTAMGCLASTVLGSLQKVSLHFSEPSIFLYGLECFEGKEIELSREVRSLQAEGFNNHVLSVRIKGGIWVLCEHSDFRGRQWLVGSCEITNWLTYSGTQRVGSLYPIKQRRVYFRLWNAALGGFLAVPDHVEDMKAGRVVVADPQAGGSCIWYYEDGLLKNQMAPTMSLQVIGPPSPGSKVVLWAESRLPRQTWSISESGHICSQMFEGQILDVKGGRGYDRDHVVLWEPDEDRASQIWTIHVL,failed
20,MSITQRKNGTYEVSISWYDSLGKRRTKSKRGFKTKPEAVLGEAKLRLEYEEVSVREKVDQQDTFAEYFKNWYIFYKKPKVSKVTLNRYQYTYNVINEYFGNKLLKDITRANYQKFIVKYGQNHSPNTMKMINNCIKACVKNAVYDEEIKKDFTYNIELISNRDNVVQVEYLNVAEIKALLNSTISKLNPRYTSNYMIVTAILTGARLSEIAGLTWNDINFNFNTININKSYDYFAKSFKPTKNKSSNRIIKINNTLCDVLKELRTNNTDLVFKNKRGLIPTSNAVNKALRARLEELNINRRNFHFHSLRHSHVAFLLSQGIDIYPIAQRLGHSDITTTTRTYAYLIEEYKDKNDAIIIAGLDKLSAEKAPTKVPAKSDI,failed
21,MQNQYFTVQENYKERFYQIPKVFFTSENYKNLTNDMKIAYAILRDRLNLSIKNSWVDEDGNIYFVYSNEKLMEILNCKKEKLTKIKKGL,failed
22,MGEYYHATVNGVVEYGAFVDLSEHVSGLIHESTYSGDPDLAVDDDVIVHLSAVRDNGDLSFEFVDPEEYRTEQRSHAYERTTADAVGLEHHHHHH,not failed

# Reference: a protein production outcome set (Wang et al. 2014)
